In patent US20190134195A1:

Target: PDL1 on the surface of TC-1 cells (UniProt Q9EP73)
Experiment: flow cytometry, staining of TC-1 tumor cells (background control)

Chain of UniProt Q9EP73 (Q9EP73 19-290 limits assumed): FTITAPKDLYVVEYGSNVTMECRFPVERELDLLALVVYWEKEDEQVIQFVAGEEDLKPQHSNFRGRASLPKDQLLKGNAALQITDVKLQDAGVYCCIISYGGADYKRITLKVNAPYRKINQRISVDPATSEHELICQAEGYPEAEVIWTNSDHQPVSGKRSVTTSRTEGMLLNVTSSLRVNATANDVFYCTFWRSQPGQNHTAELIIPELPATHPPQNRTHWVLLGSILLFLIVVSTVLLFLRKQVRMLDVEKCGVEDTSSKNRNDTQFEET

median fluorescent intensity (MFI): 184
Substance: PE-conjugated isotype control antibody
